From patent publication US20070022485, “Method of preparing transgenic organism with use of methylation and system therefor” (Japan Science Techonology Agency, published 2007)

Tests used:
[1] = tested on: Tc3 transposase (pRP2302) (Caenorhabditis elegans); experiment: cell_activity; details: 5mC at CpG; gene trap events in mouse ES cells
[2] = biological target: T1, SB transposase N123 (N-terminal 123 aa DNA-binding domain) (Sleeping Beauty (synthetic, …)); experiment: EMSA; poly(dI-dC) 1 ug, 25 C, 30 min; details: tags: C-terminal His6 (pET21d, E. coli); label: 32P 5'
T1 chain: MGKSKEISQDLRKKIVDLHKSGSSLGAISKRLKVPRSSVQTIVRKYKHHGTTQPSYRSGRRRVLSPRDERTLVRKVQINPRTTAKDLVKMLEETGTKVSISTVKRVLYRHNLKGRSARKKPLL
Description: (§1) This oligonucleotide was first labeled with [γ-³²P]ATP using T4 polynucleotide kinase, and then annealed. DNA fragment of IR/DR-L was digested with HindIII and KpnI for the preparation, and thereafter, the fragment was methylated using SssI methylase or kept unmethylated and then the fragment was treated with an alkaline phosphatase. The digested fragment was extracted using phenol-chloroform, and precipitated with ethanol, and then finally, T4 polynucleotide was used to label with [γ-³²P]ATP. In the presence of poly(dI-dC) (1.0 μg), 0.2 pmol of oligonucleotide probe or 100 pg of IR/DR-L fragment, and 1.0 μl of N123, a nucleoprotein complex was formed in a buffer described previously in Ivics, Z., P. B. Hackett, R. H. Plasterk, and Z. Izsvak. 1997; Cell 91:501-510). After a thirty minute incubation at 25 degrees Celsius, samples were loaded on a 5%-native polyacrylamide gel, and electrophoresed at 150V constant voltage, and in 0.5× Tris-borate-EDTA, 1.5 hours for oligonucleotide probe and 2.5 hours for IR/DR-L fragment. After the gel was dried, the nucleoprotein was visualized by autoradiography.
(§2) In order to clarify the mechanism of transposition which has been enhanced by methylation of CpG, the present inventors have compared the affinity of recombinant SB transposase peptide against the methylated IR/DR and unmethylated IR/DR by EMSA. […]

[3] = biological target: T1, SB transposase N123 (N-terminal 123 aa …); experiment: EMSA; shift and competition comparable to unmethylated site; poly(dI-dC) 1 ug, 25 C; details: tags: C-terminal His6 (pET21d, E. coli); label: 32P 5'
Description: as §1, §2

Molecule: Tc3 transposon vector pTc3/SAβ-geo, CpG methylated
- binding signal (fold vs unmethylated) [1]: 2

B1: IR/DR-L outer binding site, unmethylated 34 bp (dsDNA)
DNA 1: TACAGTTGAAGTCGGAAGTTTACATACACTTAAG
DNA 2: CTTAAGTGTATGTAAACTTCCGACTTCAACTGTA
- binding result [2]: binds

B2: IR/DR-L outer binding site, methylated 34 bp (dsDNA)
DNA 1: B1 DNA 1
DNA 2: B1 DNA 2
modifications: 5mC at the CpG on both strands (n in SEQ:64 and SEQ:65)
- binding result [3]: binds
